Data reported in the supplement of paper PMC11908140.

B1: library; numbered along this chain (parent)
chain: MRKPRAAVGSGHRKQAASQEGRQKHAKNNSQAKPSACDGLARQPEEVVLQASVSSYHLFRDVAEVTAFRGSLLSWYDQEKRDLPWRRRAEDEMDLDRRAYAVWVSEVMLQQTQVATVINYYTGWMQKWPTLQDLASASLEEVNQLWAGLGYYSRGRRLQEGARKVVEELGGHMPRTAETLQQLLPGVGRYTAGAIASIAFGQATGVVDGNVARVLCRVRAIGADPSSTLVSQQLWGLAQQLVDPARPGDFNQAAMELGATVCTPQRPLCSQCPVESLCRARQRVEQEQLLASGSLSGSPDVEECAPNTGQCHLCLPPSEPWDQTLGVVNFPRKASRKPPREESSATCVLEQPGALGAQILLVQRPNSGLLAGLWEFPSVTWEPSEQLQRKALLQELQRWAGPLPATHLRHLGEVVHTFSHIKLTYQVYGLALEGQTPVTTVPPGARWLTQEEFHTAAVSTAMKKVFRVYQGQQPGTCMGSKRSQVSSPCSRKKPRMGQQVLDNFFRSHISTDAHSLNSAAQ

Variants of: B1
Test: 8OG:A repair function score (normalized; synonymous = 0, nonsense = -1) (normalized log-likelihood score); higher = more repair activity (WT-like)
Conditions: with 8OG:A DNA repair reporter (GFP) in HEK-293 MUTYH KO cells
In short: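 Lentiviral MUTYH cDNA NNN codon-scan libraries in HEK-293 MUTYH knockout cells (10 pg/ml doxycycline) were co-transfected with an 8OG:A GFP repair reporter plus mCherry. At 72 h, viable mCherry+ cells were sorted into GFP+ (repair) and GFP− bins, three replicates per tile, then tile amplicons were sequenced. Per-tile Rosace fitness scores became a normalized repair function score anchored on synonymous and nonsense distributions. Synonymous medians were set to 0 and nonsense to -1; variants under 300 counts per million at the start were removed.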

Variant	8OG:A repair function score
MRKPRAAVGSGHRKQAASQEGRQKHAKNNSQAKPSACDGLARQPEEVVLQASVSSYHLFRDVAEVTAFRGSLLSWYDQEKRDLPWRRRAEDEMDLDRRAYAVWVSEVMLQQTQVATVINYYTGWMQKWPTLQDLASASLEEVNQLWAGLGYYSRGRRLQEGARKVVEELGGHMPRTAETLQQLLPGVGRYTAGAIASIAFGQATGVVDGNVARVLCRVRAIGADPSSTLVSQQLWGLAQQLVDPARPGDFNQAAMELGATVCTPQRPLCSQCPVESLCRARQRVEQEQLLASGSLSGSPDVEECAPNTGQCHLCLPPSEPWDQTLGVVNFPRKASRKPPREESSATCVLEQPGALGAQILLVQRPNSGLLAGLWEFPSVTWEPSEQLQRKALLQELQRWAGPLPATHLRHLGEVVHTFSHIKLTYQVYGLALEGQTPVTTVPPGAYWLTQEEFHTAAVSTAMKKVFRVYQGQQPGTCMGSKRSQVSSPCSRKKPRMGQQVLDNFFRSHISTDAHSLNSAAQ [R446Y]	-0.414
MRKPRAAVGSGHRKQAASQEGRQKHAKNNSQAKPSACDGLARQPEEVVLQASVSSYHLFRDVAEVTAFRGSLLSWYDQEKRDLPWRRRAEDEMDLDRRAYAVWVSEVMLQQTQVATVINYYTGWMQKWPTLQDLASASLEEVNQLWAGLGYYSRGRRLQEGARKVVEELGGHMPRTAETLQQLLPGVGRYTAGAIASIAFGQATGVVDGNVARVLCRVRAIGADPSSTLVSQQLWGLAQQLVDPARPGDFNQAAMELGATVCTPQRPLCSQCPVESLCRARQRVEQEQLLASGSLSGSPDVEECAPNTGQCHLCLPPSEPWDQTLGVVNFPRKASRKPPREESSATCVLEQPGALGAQILLVQRPNSGLLAGLWEFPSVTWEPSEQLQRKALLQELQRWAGPLPATHLRHLGEVVHTFSHIKLTYQVYGLALEGQTPVTTVPPGAVWLTQEEFHTAAVSTAMKKVFRVYQGQQPGTCMGSKRSQVSSPCSRKKPRMGQQVLDNFFRSHISTDAHSLNSAAQ [R446V]	-0.116
MRKPRAAVGSGHRKQAASQEGRQKHAKNNSQAKPSACDGLARQPEEVVLQASVSSYHLFRDVAEVTAFRGSLLSWYDQEKRDLPWRRRAEDEMDLDRRAYAVWVSEVMLQQTQVATVINYYTGWMQKWPTLQDLASASLEEVNQLWAGLGYYSRGRRLQEGARKVVEELGGHMPRTAETLQQLLPGVGRYTAGAIASIAFGQATGVVDGNVARVLCRVRAIGADPSSTLVSQQLWGLAQQLVDPARPGDFNQAAMELGATVCTPQRPLCSQCPVESLCRARQRVEQEQLLASGSLSGSPDVEECAPNTGQCHLCLPPSEPWDQTLGVVNFPRKASRKPPREESSATCVLEQPGALGAQILLVQRPNSGLLAGLWEFPSVTWEPSEQLQRKALLQELQRWAGPLPATHLRHLGEVVHTFSHIKLTYQVYGLALEGQTPVTTVPPGAMWLTQEEFHTAAVSTAMKKVFRVYQGQQPGTCMGSKRSQVSSPCSRKKPRMGQQVLDNFFRSHISTDAHSLNSAAQ [R446M]	-0.121
MRKPRAAVGSGHRKQAASQEGRQKHAKNNSQAKPSACDGLARQPEEVVLQASVSSYHLFRDVAEVTAFRGSLLSWYDQEKRDLPWRRRAEDEMDLDRRAYAVWVSEVMLQQTQVATVINYYTGWMQKWPTLQDLASASLEEVNQLWAGLGYYSRGRRLQEGARKVVEELGGHMPRTAETLQQLLPGVGRYTAGAIASIAFGQATGVVDGNVARVLCRVRAIGADPSSTLVSQQLWGLAQQLVDPARPGDFNQAAMELGATVCTPQRPLCSQCPVESLCRARQRVEQEQLLASGSLSGSPDVEECAPNTGQCHLCLPPSEPWDQTLGVVNFPRKASRKPPREESSATCVLEQPGALGAQILLVQRPNSGLLAGLWEFPSVTWEPSEQLQRKALLQELQRWAGPLPATHLRHLGEVVHTFSHIKLTYQVYGLALEGQTPVTTVPPGANWLTQEEFHTAAVSTAMKKVFRVYQGQQPGTCMGSKRSQVSSPCSRKKPRMGQQVLDNFFRSHISTDAHSLNSAAQ [R446N]	-0.508
MRKPRAAVGSGHRKQAASQEGRQKHAKNNSQAKPSACDGLARQPEEVVLQASVSSYHLFRDVAEVTAFRGSLLSWYDQEKRDLPWRRRAEDEMDLDRRAYAVWVSEVMLQQTQVATVINYYTGWMQKWPTLQDLASASLEEVNQLWAGLGYYSRGRRLQEGARKVVEELGGHMPRTAETLQQLLPGVGRYTAGAIASIAFGQATGVVDGNVARVLCRVRAIGADPSSTLVSQQLWGLAQQLVDPARPGDFNQAAMELGATVCTPQRPLCSQCPVESLCRARQRVEQEQLLASGSLSGSPDVEECAPNTGQCHLCLPPSEPWDQTLGVVNFPRKASRKPPREESSATCVLEQPGALGAQILLVQRPNSGLLAGLWEFPSVTWEPSEQLQRKALLQELQRWAGPLPATHLRHLGEVVHTFSHIKLTYQVYGLALEGQTPVTTVPPGAPWLTQEEFHTAAVSTAMKKVFRVYQGQQPGTCMGSKRSQVSSPCSRKKPRMGQQVLDNFFRSHISTDAHSLNSAAQ [R446P]	-1.13
MRKPRAAVGSGHRKQAASQEGRQKHAKNNSQAKPSACDGLARQPEEVVLQASVSSYHLFRDVAEVTAFRGSLLSWYDQEKRDLPWRRRAEDEMDLDRRAYAVWVSEVMLQQTQVATVINYYTGWMQKWPTLQDLASASLEEVNQLWAGLGYYSRGRRLQEGARKVVEELGGHMPRTAETLQQLLPGVGRYTAGAIASIAFGQATGVVDGNVARVLCRVRAIGADPSSTLVSQQLWGLAQQLVDPARPGDFNQAAMELGATVCTPQRPLCSQCPVESLCRARQRVEQEQLLASGSLSGSPDVEECAPNTGQCHLCLPPSEPWDQTLGVVNFPRKASRKPPREESSATCVLEQPGALGAQILLVQRPNSGLLAGLWEFPSVTWEPSEQLQRKALLQELQRWAGPLPATHLRHLGEVVHTFSHIKLTYQVYGLALEGQTPVTTVPPGATWLTQEEFHTAAVSTAMKKVFRVYQGQQPGTCMGSKRSQVSSPCSRKKPRMGQQVLDNFFRSHISTDAHSLNSAAQ [R446T]	-0.232
MRKPRAAVGSGHRKQAASQEGRQKHAKNNSQAKPSACDGLARQPEEVVLQASVSSYHLFRDVAEVTAFRGSLLSWYDQEKRDLPWRRRAEDEMDLDRRAYAVWVSEVMLQQTQVATVINYYTGWMQKWPTLQDLASASLEEVNQLWAGLGYYSRGRRLQEGARKVVEELGGHMPRTAETLQQLLPGVGRYTAGAIASIAFGQATGVVDGNVARVLCRVRAIGADPSSTLVSQQLWGLAQQLVDPARPGDFNQAAMELGATVCTPQRPLCSQCPVESLCRARQRVEQEQLLASGSLSGSPDVEECAPNTGQCHLCLPPSEPWDQTLGVVNFPRKASRKPPREESSATCVLEQPGALGAQILLVQRPNSGLLAGLWEFPSVTWEPSEQLQRKALLQELQRWAGPLPATHLRHLGEVVHTFSHIKLTYQVYGLALEGQTPVTTVPPGAWWLTQEEFHTAAVSTAMKKVFRVYQGQQPGTCMGSKRSQVSSPCSRKKPRMGQQVLDNFFRSHISTDAHSLNSAAQ [R446W]	-0.356
MRKPRAAVGSGHRKQAASQEGRQKHAKNNSQAKPSACDGLARQPEEVVLQASVSSYHLFRDVAEVTAFRGSLLSWYDQEKRDLPWRRRAEDEMDLDRRAYAVWVSEVMLQQTQVATVINYYTGWMQKWPTLQDLASASLEEVNQLWAGLGYYSRGRRLQEGARKVVEELGGHMPRTAETLQQLLPGVGRYTAGAIASIAFGQATGVVDGNVARVLCRVRAIGADPSSTLVSQQLWGLAQQLVDPARPGDFNQAAMELGATVCTPQRPLCSQCPVESLCRARQRVEQEQLLASGSLSGSPDVEECAPNTGQCHLCLPPSEPWDQTLGVVNFPRKASRKPPREESSATCVLEQPGALGAQILLVQRPNSGLLAGLWEFPSVTWEPSEQLQRKALLQELQRWAGPLPATHLRHLGEVVHTFSHIKLTYQVYGLALEGQTPVTTVPPGASWLTQEEFHTAAVSTAMKKVFRVYQGQQPGTCMGSKRSQVSSPCSRKKPRMGQQVLDNFFRSHISTDAHSLNSAAQ [R446S]	-0.255
MRKPRAAVGSGHRKQAASQEGRQKHAKNNSQAKPSACDGLARQPEEVVLQASVSSYHLFRDVAEVTAFRGSLLSWYDQEKRDLPWRRRAEDEMDLDRRAYAVWVSEVMLQQTQVATVINYYTGWMQKWPTLQDLASASLEEVNQLWAGLGYYSRGRRLQEGARKVVEELGGHMPRTAETLQQLLPGVGRYTAGAIASIAFGQATGVVDGNVARVLCRVRAIGADPSSTLVSQQLWGLAQQLVDPARPGDFNQAAMELGATVCTPQRPLCSQCPVESLCRARQRVEQEQLLASGSLSGSPDVEECAPNTGQCHLCLPPSEPWDQTLGVVNFPRKASRKPPREESSATCVLEQPGALGAQILLVQRPNSGLLAGLWEFPSVTWEPSEQLQRKALLQELQRWAGPLPATHLRHLGEVVHTFSHIKLTYQVYGLALEGQTPVTTVPPGAQWLTQEEFHTAAVSTAMKKVFRVYQGQQPGTCMGSKRSQVSSPCSRKKPRMGQQVLDNFFRSHISTDAHSLNSAAQ [R446Q]	-0.119
MRKPRAAVGSGHRKQAASQEGRQKHAKNNSQAKPSACDGLARQPEEVVLQASVSSYHLFRDVAEVTAFRGSLLSWYDQEKRDLPWRRRAEDEMDLDRRAYAVWVSEVMLQQTQVATVINYYTGWMQKWPTLQDLASASLEEVNQLWAGLGYYSRGRRLQEGARKVVEELGGHMPRTAETLQQLLPGVGRYTAGAIASIAFGQATGVVDGNVARVLCRVRAIGADPSSTLVSQQLWGLAQQLVDPARPGDFNQAAMELGATVCTPQRPLCSQCPVESLCRARQRVEQEQLLASGSLSGSPDVEECAPNTGQCHLCLPPSEPWDQTLGVVNFPRKASRKPPREESSATCVLEQPGALGAQILLVQRPNSGLLAGLWEFPSVTWEPSEQLQRKALLQELQRWAGPLPATHLRHLGEVVHTFSHIKLTYQVYGLALEGQTPVTTVPPGARCLTQEEFHTAAVSTAMKKVFRVYQGQQPGTCMGSKRSQVSSPCSRKKPRMGQQVLDNFFRSHISTDAHSLNSAAQ [W447C]	-1.09
MRKPRAAVGSGHRKQAASQEGRQKHAKNNSQAKPSACDGLARQPEEVVLQASVSSYHLFRDVAEVTAFRGSLLSWYDQEKRDLPWRRRAEDEMDLDRRAYAVWVSEVMLQQTQVATVINYYTGWMQKWPTLQDLASASLEEVNQLWAGLGYYSRGRRLQEGARKVVEELGGHMPRTAETLQQLLPGVGRYTAGAIASIAFGQATGVVDGNVARVLCRVRAIGADPSSTLVSQQLWGLAQQLVDPARPGDFNQAAMELGATVCTPQRPLCSQCPVESLCRARQRVEQEQLLASGSLSGSPDVEECAPNTGQCHLCLPPSEPWDQTLGVVNFPRKASRKPPREESSATCVLEQPGALGAQILLVQRPNSGLLAGLWEFPSVTWEPSEQLQRKALLQELQRWAGPLPATHLRHLGEVVHTFSHIKLTYQVYGLALEGQTPVTTVPPGARALTQEEFHTAAVSTAMKKVFRVYQGQQPGTCMGSKRSQVSSPCSRKKPRMGQQVLDNFFRSHISTDAHSLNSAAQ [W447A]	-0.968
MRKPRAAVGSGHRKQAASQEGRQKHAKNNSQAKPSACDGLARQPEEVVLQASVSSYHLFRDVAEVTAFRGSLLSWYDQEKRDLPWRRRAEDEMDLDRRAYAVWVSEVMLQQTQVATVINYYTGWMQKWPTLQDLASASLEEVNQLWAGLGYYSRGRRLQEGARKVVEELGGHMPRTAETLQQLLPGVGRYTAGAIASIAFGQATGVVDGNVARVLCRVRAIGADPSSTLVSQQLWGLAQQLVDPARPGDFNQAAMELGATVCTPQRPLCSQCPVESLCRARQRVEQEQLLASGSLSGSPDVEECAPNTGQCHLCLPPSEPWDQTLGVVNFPRKASRKPPREESSATCVLEQPGALGAQILLVQRPNSGLLAGLWEFPSVTWEPSEQLQRKALLQELQRWAGPLPATHLRHLGEVVHTFSHIKLTYQVYGLALEGQTPVTTVPPGARDLTQEEFHTAAVSTAMKKVFRVYQGQQPGTCMGSKRSQVSSPCSRKKPRMGQQVLDNFFRSHISTDAHSLNSAAQ [W447D]	-1.18
